From patent US20220220215A1 (CRESCENDO BIOLOGICS, published 2022)

Assays:
[1] = target: T1, recombinant Fc-tagged ectodomain of human PD1 (Acro Biosystems PD1-H5257) (human, UniProt Q15116 25-170); test: SPR, Biacore 8K, single-cycle kinetics; Fc-tagged ectodomain captured on Protein G chip; 1:1 model
T1 construct: Bought protein; not shown: Fc tag
Procedure, shortened: (§1)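 Single-cycle kinetics: Humabody VH constructs injected 90 s at low to high nanomolar concentrations over captured Fc-tagged ectodomains. Surface regenerated with 10 mM glycine pH 1.5. Kinetics fitted to a 1:1 binding model, including two-PD-1-arm constructs.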

[2] = target: T2, recombinant Fc-tagged ectodomain of cynomolgus CD137 (R&D S9324-4b) (cynomolgus macaque, UniProt A9YYE7 24-186); test: as above
T2 construct: Bought protein; also called Cyno CD137; cynomolgus macaque CD137; not shown: Fc tag and any linker to it
Procedure, shortened: as §1

[3] = target: T3, recombinant Fc-tagged ectodomain of human CD137 (Acro Biosystems 41B-H5258) (human, UniProt Q07011 24-186); test: as above
T3 construct: Bought protein; not shown: Fc tag
Procedure, shortened: as §1

[4] = target: T4, recombinant Fc-tagged ectodomain of cynomolgus PD1 (Acro Biosystems PD1-C5254) (cynomolgus macaque, UniProt B0LAJ3 25-170); test: as above
T4 construct: Bought protein; also called Cyno PD1; cynomolgus macaque PD1; not shown: Fc tag and any linker to it
Procedure, shortened: as §1

[5] = target: T5, human CD137 expressed on cells (Jurkat human CD137 NF-kB luciferase reporter cells; human CD8+ T cells) (human, UniProt Q07011 24-255); test: cell-based or functional assay
[6] = target: T5, human CD137 expressed on cells (Jurkat …); test: cell-based or functional assay; remark: listed apart in the source
[7] = target: T5, human CD137 expressed on cells (Jurkat …); test: cell-based or functional assay; remark: listed apart in the source
[8] = target: T6, full-length rhesus CD137 (Sino Biologics 90847-K02H), huFc tag (rhesus, UniProt F6W5G6 24-186); test: BLI (ForteBio Octet RED 384), CD137-Fc on Protein G biosensors, 1:1 model
T6 construct: Bought protein; also called rhCD137-Fc; Rhesus CD137-Fc tagged protein; not shown: human Fc tag (huFc) and any linker to it
Procedure: Binding kinetics of purified monovalent VH molecules were measured on a ForteBio Octet RED 384 instrument. Human and Rhesus CD137-Fc tagged protein was diluted to 5 μg/ml in kinetics buffer (0.05% Tween, 1×PBS) and coupled to Protein G biosensors (ForteBio cat no. 18-5082) via the Fc tag. VH were serially diluted (typically 1:2 dilution series starting with 200 nM, VH at the highest concentration) and binding to the CD137-Fc-coupled Protein G biosensors measured. Binding kinetics were determined from the (blank subtracted) sensor gram trace using 1:1 binding models and ForteBio Octet Data Analysis 9.0 software. Example kinetic and binding affinity data obtained is shown Table 18 (monovalent VH).

Row | Binder | Kd [1] | koff [1] | kon [1] | Kd [2] | koff [2] | kon [2] | Kd [3] | koff [3] | kon [3] | Kd [4] | koff [4] | kon [4] | CD8+ T-cell activation assay - IL-2 release, EC50 [5] | Jurkat-CD137/CHO-PD-1 Reporter Assay EC50 [6] | Jurkat-CD137/CHO-PSMA Reporter Assay EC50 [7] | Kd [8]
1 | TPP-1246 CD137A-6GS-HSA2-6GS-PD138G7(G109D) (bispecific antibody) EVQLVESGGGLVQPGGSLRLSCAASGFTLSNYWMNWVRQAPGKGLEWVANINQDGSERYYVDSVKGRFTISRDNAKNSLYLQMNSLRAEDTAVYYCARGGEGYGVDHYGLDVSGQGTTVTVSSGGGGSGGGGSGGGGSGGGGSGGGGSGGGGSEVQLVESGGGLVKPGGSLRLSCAASGFTFSNYNMNWVRQAPGKGLEWVSSISSAGTHIYYADSVKGRFTISRDNAKNSLYLQMNSLRAEDTAVYYCARDPHSTGWYKDFDYWGQGTLVTVSSGGGGSGGGGSGGGGSGGGGSGGGGSGGGGSEVQLVESGGGVVRPGGSLRLSCAASGFTFDDYAMSWVRQAPGKGLEWVSGITWNGGSTGYADSVKDRFTISRDNAKNSLYLQMNSLRAEDTALYYCVRDKYSYAWSYDDFDIWGQGTMVTVSS | 8.38 nM | 0.00202 s⁻¹ | 241000 M⁻¹ s⁻¹ | 0.842 nM | 0.000267 s⁻¹ | 317000 M⁻¹ s⁻¹ | 0.541 nM | 0.000187 s⁻¹ | 345000 M⁻¹ s⁻¹ | 20.5 nM | 0.00464 s⁻¹ | 227000 M⁻¹ s⁻¹ | 0.176 nM | 0.0729 nM | – | –
2 | TPP-1290 PD138G7(G109D)-6GS-CD137A-6GS-HSA2 (bispecific antibody) EVQLVESGGGVVRPGGSLRLSCAASGFTFDDYAMSWVRQAPGKGLEWVSGITWNGGSTGYADSVKDRFTISRDNAKNSLYLQMNSLRAEDTALYYCVRDKYSYAWSYDDFDIWGQGTMVTVSSGGGGSGGGGSGGGGSGGGGSGGGGSGGGGSEVQLVESGGGLVQPGGSLRLSCAASGFTLSNYWMNWVRQAPGKGLEWVANINQDGSERYYVDSVKGRFTISRDNAKNSLYLQMNSLRAEDTAVYYCARGGEGYGVDHYGLDVSGQGTTVTVSSGGGGSGGGGSGGGGSGGGGSGGGGSGGGGSEVQLVESGGGLVKPGGSLRLSCAASGFTFSNYNMNWVRQAPGKGLEWVSSISSAGTHIYYADSVKGRFTISRDNAKNSLYLQMNSLRAEDTAVYYCARDPHSTGWYKDFDYWGQGTLVTVSS | 7.07 nM | 0.00244 s⁻¹ | 345000 M⁻¹ s⁻¹ | 1.03 nM | 0.000255 s⁻¹ | 247000 M⁻¹ s⁻¹ | 0.652 nM | 0.000185 s⁻¹ | 283000 M⁻¹ s⁻¹ | 17.4 nM | 0.00539 s⁻¹ | 310000 M⁻¹ s⁻¹ | 0.199 nM | 0.02 nM | – | –
3 | TPP-1293 (PDBlocker1.92-6GS-CD137A-6GS-HSA2) (bispecific antibody, The chain is therefore built from the parts named in the composition) EVQLVESGGGLVKPGGSLRLSCAASGFTFSDESMTWMRQAPGKGLEWVSYISSGGGVKFYADSVKGRFTISRDNAKNSLYLQMNSLRAEDTAVYYCAREAPLRLGESPHDAFDISGQGTMVTVSSGGGGSGGGGSGGGGSGGGGSGGGGSGGGGSEVQLVESGGGLVQPGGSLRLSCAASGFTLSNYWMNWVRQAPGKGLEWVANINQDGSERYYVDSVKGRFTISRDNAKNSLYLQMNSLRAEDTAVYYCARGGEGYGVDHYGLDVSGQGTTVTVSSGGGGSGGGGSGGGGSGGGGSGGGGSGGGGSEVQLVESGGGLVKPGGSLRLSCAASGFTFSNYNMNWVRQAPGKGLEWVSSISSAGTHIYYADSVKGRFTISRDNAKNSLYLQMNSLRAEDTAVYYCARDPHSTGWYKDFDYWGQGTLVTVSS | 2.31 nM | 0.000212 s⁻¹ | 91500 M⁻¹ s⁻¹ | 4.34 nM | 0.000226 s⁻¹ | 52200 M⁻¹ s⁻¹ | 2.57 nM | 0.000151 s⁻¹ | 58600 M⁻¹ s⁻¹ | 3.41 nM | 0.000407 s⁻¹ | 119000 M⁻¹ s⁻¹ | 0.146 nM | 0.0113 nM | – | –
4 | TPP-805 PSMA-6GS-CD137-6-6GS-HSA (bispecific antibody) EVQLVESGGGVVQPGRSLRLSCAASGFSFSGYGMHWVRQAPGKGLEWVAYISYDGSNKYYADSVKGRFTISRDNSKNTLYLQMNSLRAEDTAVYYCAKDPAWGLRLGESSSYDFDIWGQGTMVTVSSGGGGSGGGGSGGGGSGGGGSGGGGSGGGGSEVQLVESGGGLVQPGGSLRLSCAASGFTFSNYGMHWVRQAPGKGLEWVAVISNDGNTKTYADSVKGRFTISRDNSKNMLYLQMNSLRTEDTAVYYCAQDETTTVTASYYFDYWGQGTLVTVSSGGGGSGGGGSGGGGSGGGGSGGGGSGGGGSEVQLVESGGGLVQPGRSLRLSCAASGFTFHHYAMHWVRQAPGKGLEWVSGISWNGNKITYADSVKGRFTISRDNAKNSLYLQMNSLRAEDTALYYCVRDSSLFIVGAPTFEHWGRGTLVTVSS | – | – | – | – | – | – | – | – | – | – | – | – | – | – | 16 nM | –
5 | TPP-806 PSMA-6GS-CD137-6GS-HSA (bispecific antibody) EVQLVESGGGVVQPGRSLRLSCAASGFSFSGYGMHWVRQAPGKGLEWVAYISYDGSNKYYADSVKGRFTISRDNSKNTLYLQMNSLRAEDTAVYYCAKDPAWGLRLGESSSYDFDIWGQGTMVTVSSGGGGSGGGGSGGGGSGGGGSGGGGSGGGGSEVQLVESGGGLVQPGGSLRLSCAASGFTFSNYGMHWVRQAPGKGLEWVAVISNDGNTKTYADSVKGRFTISRDNSKNTLYLQMNSLRTEDTAVYYCAQDETTTVTASYYFDYWGQGTLVTVSSGGGGSGGGGSGGGGSGGGGSGGGGSGGGGSEVQLVESGGGLVQPGRSLRLSCAASGFTFHHYAMHWVRQAPGKGLEWVSGISWNGNKITYADSVKGRFTISRDNAKNSLYLQMNSLRAEDTALYYCVRDSSLFIVGAPTFEHWGRGTLVTVSS | – | – | – | – | – | – | – | – | – | – | – | – | – | – | 9.3 nM | –
6 | 003BB172-E01-5 (VHH, Human VH single domain antibody, His-tagged in the assays; not shown: C-terminal 6xHIS tag) VH: EVQLVESGGGLVQPGGSLRLSCAASGFTFSNYGMHWVRQAPGKRLEWVAVISNDGNTKTYADSVKGRFTISRDNSKNTLYLQMNSLRTEDTAVYYCAQDETTTVTASYYFDYWGQGTLVTVSS | – | – | – | – | – | – | – | – | – | – | – | – | – | – | – | 11.5 nM
7 | 003BB172-E01-8 (VHH, Human VH single domain antibody, His-tagged in the assays; not shown: C-terminal 6xHIS tag) VHH: EVQLVESGGGVVQPGGSLRLSCAASGFTFSNYGMHWVRQAPGKGLEWVAVISNDGNTKTYADSVKGRFTISRDNSKNTLYLQMNSLRTEDTAVYYCAQDETTTVTASYYFDYWGQGTLVTVSS | – | – | – | – | – | – | – | – | – | – | – | – | – | – | – | 41.4 nM
